{"source": "patent US20170096478A1", "about": "“THERAPEUTIC AGENT FOR INFLAMMATORY DISEASE” (Josai University Corporation, priority 2012, published 2017)", "molecules": {"B1": {"name": "SSV mAb: monoclonal antibody (IgG1) produced by Mouse-Mouse hybridoma SSV-C 93-3 (NITE BP-972), raised against peptide … (SEQ ID NO:1)-KLH conjugate (antibody, V domains shown)", "VH": "EIQLQQSGAELVKPGASVKISCKASGYSFTGYNMNWVKQSHGKSLEWIGNINPYYGSTSYNQKFKGKATLTVDKSSSTAYMQLNSLTSEDSAVYYCARSPYYSNYWRYFDYWGQGTTLTVSS", "VL": "QIVLSQSPAILSASPGEKVTMTCRASSSVSYMHWYQQKPGSSPKPWIYATSNLASGVPARFSGSGSGTSYSLTISRVEAEDAATYYCQQWSSNPWTFGGGTKLEIK"}}, "test_system": "CD3 positive T cells", "assay": "Reactivity of the monoclonal antibody with T cells by flow cytometry (FACS)", "assay_type": "cell-based, C57BL/6 mouse", "conditions": "unstimulated T cells, 16G9 mAb compared with SSV mAb", "procedure": "Using the following approach, spleen was removed from a C57BL/6 mouse (5 weeks old, female, CHARLES RIVER LABORATORIES JAPAN, INC.) to prepare whole splenic cells.\nFirst, in a 5 ml culture dish (BD Bioscience FALCON 351007) into which 5 ml RPMI 1640 culture medium (Sigma-Aldrich, R-8758) was transferred, spleen was disentangled well with scissors for dissection and forceps to suspend the splenic cells, which were then transferred to a 15 ml centrifuge tube (BD Bioscience FALCON 352096). Then, the 5 ml dish was washed several times with phosphate-buffered saline (PBS, Invitrogen, 20012-027), and these were also added to the foregoing cell suspension and allowed to stand, and then the supernatant was collected in another 15 ml centrifuge tube. In addition, 5 ml RPMI 1640 culture medium was also added to the residual insoluble spleen tissue again and allowed to stand, and then only the supernatant was collected, which was combined with the above-mentioned cell suspension to perform centrifugation at 1,500 rpm for 5 min. To the collected cells, added was 2 ml lysis buffer (150 mM NH4Cl/15 mM NaHCO3/0.1 mM EDTA-Na2, pH 7.3) and hemolyzed by tapping, and then 10 ml PBS was added. After washed 3 times by centrifugation at 1,500 rpm for 5 min, whole splenic cells were obtained. […]\nThe reactivity of the above unstimulated with 16G9 mAb or SSV mAb was analyzed by flow cytometry (FACS). […]", "data": [{"molecule": "B1", "values": [{"measurement": "reactivity with CD3 positive T cells", "value": "comparative reactivity"}]}]}
